This note sets out measurements from the nanobody polyreactivity screen of Harvey et al. (2022).

This data set is described as follows: yeast display, Sf9 membrane polyspecificity reagent, FACS + sequencing; frameworks hold sequencing errors. The method in brief:
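A synthetic nanobody library was expressed on Saccharomyces cerevisiae BJ5465 by galactose induction for 36–48 hours. The library was stained for 1 hour at 4 °C with 10% biotinylated, detergent-solubilized Sf9 membrane reagent and enriched with streptavidin microbeads before FACS. Low and high (top ~1%) gates were set on anti-HA fluorescence for expression and streptavidin fluorescence for reagent binding, and each polyreactivity label reflects the gate of origin.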
“QVQLVESGRGLVQAGGSLRLSCAASGSIFAFYAMGWYRPAAGKERELVAVITRSGGSTYYADSVKGRFTISRDNAKITVYLQMNSLKPEDTAVFYCAARTGYGYTRYEYWGQGTQVTVSS”: the “polyreactivity (PSR sort gate)” value is “high polyreactivity”.
The same measure for “QVQLVESGRGLVQAGGSLRLSCAASGSIFGYYAMGWYRQAPGKERELVAAISRSGGSTYYADSVKGRFTISRDNAKNTVYLQMNSLKPEDTAVYYCAADDYPYGNYYWGQGTQVTVSS”: “high polyreactivity”; for “QVQLVESGRGLVQAGGSLRLSCAASGSIFTHYAMVWYRQAPGKERELVATISNGDGSTYYADSVKGRFTISRDNAKNTVYLQMNSLKPEDTAVYYCNVDDFSQYADDSWGYEYWGQGTQVTVSS”: “low polyreactivity”.
In the case of “QVQLVESGRGLVQAGGSLRLSCAASGSTCEGNAMGWYRQAPGKEELVAAISWSSDSTYNADSVKGRFTISRDNAKNTVYLQMNSLKPEDTAVYYCAAAIPGKYSNDYWGQGTQVTVSS”, the “polyreactivity (PSR sort gate)” value is given as “high polyreactivity”.
Under “QVQLVESGRGLVQAGGSLRLSCAASGSTFAPYTMGWYRQAPGKERELVAAISWNGGRTSYADSVKGRFTISRDNAKNTVYLQMNSLKPEDTAVYYCATRRIWTQSYDGGLYGYYYWGQGTQVTVSS” stands “high polyreactivity”; under “QVQLVESGRGLVQAGGSLRLSCAASGSTFDGYAMGWYRQAPGKVRELVAAINWGGGSTRYADSVKGRFTISRDHAKNTVYLQMNSLKPEDTPVYYCAAYRYRVWYRGYDYWGQGTQVTVSS”, “high polyreactivity”.
“QVQLVESGRGLVQAGGSLRLSCAASGSTFQVYTMGWYRQAPGKEREFVASISWSGSSTYYADSVKGRFTISRDNAKNTVYLQMNSLKPEDTAVYYCAARVGSTYRRYYYWGQGTQVTVSS”: the “polyreactivity (PSR sort gate)” value is “high polyreactivity”.
The same measure for “QVQLVESGRGLVQAGGSLRLSCAASGSTFRGNAMGWYRQATGKERELVAAITRSGGRTYYADSVKGRFTISRDNAKNTVYLQMNSLKPEDTAVYYCAVEYKYPGYDYWGPGTQVTVSS”: “high polyreactivity”; for “QVQLVESGRGLVQAGGSLRLSCAASGSTFTEYAMGWYREAPGKERELFAAINRSGGGTYYADSVKGRFTISRDNAKNTVYLQINSLKPEDTADYYCAKDWYRRYIRDYWGQGTQVTVSS”: “high polyreactivity”.
Under “QVQLVESGRGLVQAGGSLRLSCAASGYIFDRYAMGWSRQAPGKERELVAAISGRGGSTYYADSVKGRFTISRDNAKNTVYLQMNSLNPEDTAVYYCARDVYVRNGQRARYDSWGQGTQVTVSS” stands “high polyreactivity”; under “QVQLVESGRGLVQAGGSLRLSCAASGYTFSHYAMGWYRQAPGKEMELVAGNTWSGGSTYYADSVKGRFTISRDNAKNTVYLQMNSLKPEDTSVYYCAAKYYWYYSYSGIPLFDYWGQGTQVTVSS”, “low polyreactivity”; under “QVQLVESGRGLVQAGGSLRLSCHASGFTFSPYTMGWSRQAPGKERELVATIRYDCTSTYYADSVKGRFTISRDNAKNTVYLQMNSLKPEDTAVYYCAADIWRVYSTFYYWGQGTEVTVSS”, “low polyreactivity”.
Regarding “QVQLVESGRGLVQAGGSLSLSCAASGITFGNYAMGWYRQAPGKERELVAAITGSGGRTYYADSVKVRFTISRDNAKNTVYLQMNSLKPEDTAVYDCAAKQYTRFGYYYWGQGTQLTVSS”, the “polyreactivity (PSR sort gate)” value is reported as “high polyreactivity”.
Under “QVQLVESGRGLVQEGGSLRLSCAPSGSTFYRFAMGWYRQAPGKERELVAAISASGGSTYYADSVKGRFTISRDNAKYTVYLQMNSLKPEDTEVYYCNRDRRYRNDYWGQGTQVTVST” stands “high polyreactivity”; under “QVQLVESGRGLVQEGGSLRLSCASSGSTFKVYAMGWYRQAPGKERELVAAISQSGGSTYYADSVKGRFTISRDNAKNTVYIQMNSLKPEDTAVYYCAVRTYVYNWSFSSLPYDYWGQGTQVTVSS”, “high polyreactivity”; under “QVQLVESGRRLVQAGGSLRLSCAASGINFDSYAMGWYRQAPGKERELVAAITSDSGRTYYADSVTGRFTISRDNAKNTVYLQMNSVKPEDTPVYYCAKRWDGPYDYWGQGTQVTVSS”, “low polyreactivity”.
As for “QVQLVESGRRLVQAGGSLRLSCAASGSIFIPNVMGWYRQAPRKERELVASIRSNGGTNYADSVKGRFTISRDNAKNTVYLQMNSLKPEDTAVYNCAAKRWSYRHGFDYLGQGTQVTVSS”, the “polyreactivity (PSR sort gate)” value is “high polyreactivity”.
On to “QVQLVESGSGLVQAGGSLRLSCAHSGFTVSYYVMGWYRQAPGKERELVAAISWSGGSTYYADSVKGRFTISLDNAKNTVYLQMNSLKPEDTAFYYCNADDWRDDYEYWGQGTQVTVSS”, for which the “polyreactivity (PSR sort gate)” value was “high polyreactivity”.
Under “QVQLVESGVGIVQAGCSLRLSCAASGSIFRYYAMGLYRQAPGKERELVAGITASTGRTYYADSVKGRFTISRDNAKNTVYLQMNSLKPEDTAVYYCAARSRYYEYDYWGQGTQVTVSS” stands “low polyreactivity”; under “QVQLVESGVGIVQAGRSHRVSCAASGSTYNPYAMGWYRQAPGKESELVARIRGSGGSTYYADSVKVRFTISRDNAKNPVFLHMNSQKPEDTAVYYCATDDYYLSRYRLVGYYSWGQGTQVTVSS”, “high polyreactivity”.
Take “QVQLVESGVGLDQARGSLRLSCAASGITFDDYAMGWYRQAPGKERELVAAISVSGGDTYYADSVKGRFTISRDNAKNTVYLQMNSLKPEDSAVYYCAAEEVSPRWYEYWGQGTQVTVSS”: the “polyreactivity (PSR sort gate)” value was “low polyreactivity”.
The same measure for “QVQLVESGVGLDQARVSLRLSCAASGFTFGQYVMGWYRQAPGKEREFVAIISRSVDSTYYADSVKGRFTISRDNAKNTVYLQMNSLNPEDTAVYYCNARGKRRGKIPYSSYASSYDSWGQGTQVTVSS”: “high polyreactivity”; for “QVQLVESGVGLGQAGGSLRLSCAASGRIFSRYAMGWYRPAPGKERELVATITRRGGSTSYADSVKGRFTISRDNAKNTVFLQMNCLKPEDTAVYYCAAQSFYGIYYGKQDYDYWGQGTQVTVSS”: “high polyreactivity”; for “QVQLVESGVGLLQAGGSLRISCAASGSIFFDNSMGRYRQAPGKERELVAAITWSGSRTYYADSVKGRFTISRDNAKNTVYLQMNSLKPEDTAVYYSNAVYWWYWALFTVGRYDYWGQGTQVTVSS”: “high polyreactivity”.
The same measure for “QVQLVESGVGLVKAGGSLRLSCAASGSTFNGYGMGWYRQAPGKERELVAAMSWSGGSTYYADSVKGRFTISRDNAKNTGYLLMNSLKPEDTAVYYCAALTHYGGYGYTYDYWGQGTQVTVSS”: “low polyreactivity”.
For the sequence “QVQLVESGVGLVQAGCSHRLSCAASGSTISAYDMGSYRQAPGKERELVAAITWIGGNTYYADSVKGRFTISRDNAKNTVYLQMNSLKPEDTAVYYCAAEEVPYDRDMDYWGQGTQVTVSS”, the “polyreactivity (PSR sort gate)” value is reported as “low polyreactivity”.
Under “QVQLVESGVGLVQAGGRLRLICAASGITFGPNALGWYRQAPGKERELVAAISWRGGSTYNADSVKGRFTISRDNGKNTVYLQMNSLKPEDTAVYYCAADLAYGAMVYWGQGTQVTVSS” stands “low polyreactivity”; under “QVQLVESGVGLVQAGGRLRLSCAASGSIFASSAMGWYRKAPGKERELVAVINSYDRTNYADSVKGRFTISRDNAKNTVYLKMNSLKPEDTAVYYCNADAIRIIPAYDYWGQGTQVTVSS”, “low polyreactivity”.
In the case of “QVQLVESGVGLVQAGGSHPLSCAASGSTLRYAMGWNRQAPGKETELVAAISRTGGSTYYADSVKGRFTISRDNAKNTVYLQMNSLKPEDPAVYYCAARYFTSYPLYYYWGQGTQVTVSS”, the “polyreactivity (PSR sort gate)” value is recorded as “high polyreactivity”.
The same measure for “QVQLVESGVGLVQAGGSLRLICAASGRNFRTNAMGWYRQAPGKERELVAAISTGGGITKYADSVKGRFTISRDNSKNTVYLQMNSLKPEDTAVYYCAADAVNTLDYWGQGTQVTVSS”: “low polyreactivity”.
Under “QVQLVESGVGLVQAGGSLRLICAASGSTFAYNDMGWYRQAPGKERELVAAINGGGGSTYYGDSVKGRFTISRDNAKNTVYLHMNSLKPEVTAVYYCAKGEWSYVDSFGPYYDLVYWGQGTQVTVSS” stands “low polyreactivity”.
Under “QVQLVESGVGLVQAGGSLRLICGASGFTFDYNSMVWYRQAPGKERELVAAISASGGSTYYADSVKGRFTISRDNAKNTVYLQMKSLKPEDTAVYYCNAGRVTRRDTFDYWGQGTQVTVSS” stands “high polyreactivity”; under “QVQLVESGVGLVQAGGSLRLRCAASGFIFIHNAMGWYRQAPGKERELVAAISYSGGSTYYADSVKGRFTISRDTAKNTVYLQMNSLKPEDTAVYFCNRVQYYRADRMDYWGQGTQVTVSS”, “low polyreactivity”.
For the sequence “QVQLVESGVGLVQAGGSLRLSCAAAGYIFFFYAMGWYRQAPGKERELVASITYRGGSTYYADSVKGRFTISRDNAKNTVYLHMNSLKPEDTAVYYCNVDGGGPLGPQGFPFDYWGQGTQVTVSS”, the “polyreactivity (PSR sort gate)” value is given as “low polyreactivity”.
With “QVQLVESGVGLVQAGGSLRLSCAASASTFYGYTMGWNRQAPGKERELVAAITSTGRTYYADSVKGRFTISRDNAKNTVYLQMNSLKPEDTAVYYCAKKSSARRYDYDYWGQGTQVTVSS”, the “polyreactivity (PSR sort gate)” value is listed as “high polyreactivity”.
For “QVQLVESGVGLVQAGGSLRLSCAASGFIFPTNTMGWYRQAPGKEREFVARITRSGTNTYYADSVKGRFTISRDNAKNTVYLQMNSLKPEDTAVYYCATRYYHFNYWGQATQVTVSS”, the “polyreactivity (PSR sort gate)” value is on record as “high polyreactivity”.
The same measure for “QVQLVESGVGLVQAGGSLRLSCAASGFIFYYYAMGWYRQAPGKERELVAAISTDGGSTYYADSVKGRFTISRDNAKNTVYLQMNSLKPEDTAVYYCNAPYYGWGYWPLEYIRYEYWGQGTQVTVST”: “low polyreactivity”; for “QVQLVESGVGLVQAGGSLRLSCAASGFLFKYNAMGWYRQAPAKERELVAAISWSGSRTYYADSVKGRFTISRDNAKNTVYLQMNSLKPEDTAVYYCNAVSWRTSRYDYWGQGTQVTVSS”: “high polyreactivity”; for “QVQLVESGVGLVQAGGSLRLSCAASGFTFPYYAMGWYIQAPGKERELVAAISSGGRTNYADSVKGRFTISRDNAKNTVYLQMNSLKPEDTAVYDCATRSYVFAWEFNYWGQVTQVTVSS”: “high polyreactivity”.
Under “QVQLVESGVGLVQAGGSLRLSCAASGFTFQYYAMGWYRQAPGKERELVAAITRGDSTNYADSVKGRFTISRDNAKNTVYLQMNSLKPEDTAVYYCAAGSAPSYWGGWYYERDYWGQGTQVTVSS” stands “low polyreactivity”.
On to “QVQLVESGVGLVQAGGSLRLSCAASGFTLGRNAMGWYRQAPGKERELVASISGRGGSSYYADSVKGRFTISRDNAKNSVYLQMNSLKPEDTAVYYCAARGVSGKYYYWGQGTQVTVSS”, for which the “polyreactivity (PSR sort gate)” value was “high polyreactivity”.
